Common to all, as to assay: target-induced aptamer displacement, RDV release by UV-vis at 247 nm
One data set has as its system hemoglobin (HGB). The note with it: 2 uM HGB; 3'-SH on aptamer; 5'-COOH on complementary strand; Release assay buffer and temperature not given; Au-DNA stored in PBS (137 mM NaCl, 2.7 mM KCl, 10 mM Na2HPO4, 1.75 mM KH2PO4, 50 mM MgCl2, pH 7.4).
The next data set relates to immunoglobulin G (IgG). The note with it: 2 uM IgG; 3'-SH on aptamer; 5'-COOH on complementary strand; Release assay buffer and temperature not given; Au-DNA stored in PBS (137 mM NaCl, 2.7 mM KCl, 10 mM Na2HPO4, 1.75 mM KH2PO4, 50 mM MgCl2, pH 7.4).
In data set [1] the test system is alkaline phosphatase (AKP). Conditions: 20 U/mL AKP; 3'-SH on aptamer; 5'-COOH on complementary strand; Release assay buffer and temperature not given; Au-DNA stored in PBS (137 mM NaCl, 2.7 mM KCl, 10 mM Na2HPO4, 1.75 mM KH2PO4, 50 mM MgCl2, pH 7.4).
Another data set relates to fibrinogen (FIB). Conditions: 2 uM FIB; 3'-SH on aptamer; 5'-COOH on complementary strand; Release assay buffer and temperature not given; Au-DNA stored in PBS (137 mM NaCl, 2.7 mM KCl, 10 mM Na2HPO4, 1.75 mM KH2PO4, 50 mM MgCl2, pH 7.4).
The test system of another data set is cytochrome c. The note with it: 2 uM cytochrome c; 3'-SH on aptamer; 5'-COOH on complementary strand; Release assay buffer and temperature not given; Au-DNA stored in PBS (137 mM NaCl, 2.7 mM KCl, 10 mM Na2HPO4, 1.75 mM KH2PO4, 50 mM MgCl2, pH 7.4).

With “GCTGGATGTCGCTTACGACAATATTCCTTAGGGGCACCGCTACATTGACACATCCAGC / TTGTACTGGCTCATAGCTGGATGTGTCAATGTAGCGGTGCCCCTAAGGAATATTGTCGTAAGCG”, the binding signal (% of N protein signal) was 6.22 in the data set on hemoglobin (HGB); 7.05 with immunoglobulin G (IgG); 11.6 in data set [1]; 4.56 with fibrinogen (FIB); 9.13 with cytochrome c.

The record behind these values is publication PMC9688528.
